Assay results from patent publication US20240417446A1 (US Dept. of Health and Human Services, published 2024).

B1: NCI-CoV-S2A9 (VNAR)
VNAR: ARVDQTPRSVTKETGESLTINCVLRDASYALGRTCWYRKKSGSTNEESISKGGRYVETVNSGSKSFSLRINDLTVEDGGTYRCGVSTPWSCDYGPLCFYAACGDGTVVTVN
B2: NCI-CoV-S2G8 (VNAR)
VNAR: ARVDQTPQTITKETGESLTINCVLRDSNCPLSNTYWYRKKSGSTNEESISKGGRYVETVNSGSKSFSLRINDLTVEDSGTYRCKVRTHWSICWEMGLEPNYDVYGGGTVVTVN
B3: NCI-CoV-S3A10 (VNAR)
VNAR: ARVDQTPRSVTKETGESLTINCVLRDASYALGSTCWYRKKSGSTNEESISKGGRYVETVNSGSKSFSLRINDLTVEDGGTYRCGRIQNTKAVLLPCVYAACGDGTVVTVN
B4: NCI-CoV-S4A9 (VNAR)
VNAR: ARVDQTPRSVTKETGESLTINCVLRDASYALGSTCWYRKKSGSTNEESISKGGRYVETVNSGSKSFSLRINDLTVEDGGTYRCGVQSRWGAVPKLCSNYAACGDGTAVTVN
B5: NCI-CoV-CG2G2 (VHH)
VHH: AVQLVESGGGSVPPGGSLTLSCTVSDNIFRTYAVGWFRQAPEKRCQWIATLNADESTEYNVAVTGRFTISRDNSGRSVYLQMDNLNSEDTAIYYCASLARKWSCHDSWGRGTQVTVSS
B6: NCI-CoV-CLA2 (VHH)
VHH: QVQLVESGGGSVQPGGSLRLSCAVSGYTSSSYCFGWFRQAPGKDREGIIAMEPGNTYTAGAVKGRFTISRDNAKNMVYLQMNSLKPDDTAMYYCAASPYPGTWLNPDLFDTWGQGTQVTVSS
B7: NCI-CoV-CGH3 (VHH)
VHH: AVQLVESGGGLVQPGGSLRLSCAASGFTFSSYAMGWVRQAPGKGLEWISAINSGGDIRYYADSVKGRFTISRDNAKNTLYLQMNSLKPEDTAVYYCATDDEILSYGLGTSFDYWGQGTQVTVSS
B8: NCI-CoV-CL3H4 (VHH)
VHH: DVQLVESGGGAVKPGGSLTLTCTVQEGSRNCVGWFRQGSGKDRQAVAMINGNGGTTNYDDRVKGRFQISRDGSLVHLRMNDVKLGDTDIYYCRQGQTYDCWGGTWTDSGWGQGTQVTVSS
B9: NCI-CoV-CGF10 (VHH)
VHH: AVQLVESGGGLVQPGGSLRLSCAASGFTFSSYGMHWVRQAPGKGLERVAGINWDGSNSYYTETVKGRFTISRDNAKNTAYLQMNSLKPEDTAMYYCRTLILDSDCDPGSTYRYAWGQGTQVTVSS

Key:
[1] = target: SARS-CoV-2 Omicron BA.1 variant spike protein on pseudovirus (SARS-CoV-2); assay: cell-based or functional assay
[2] = target: SARS-CoV-2 Lambda variant spike protein on pseudovirus (SARS-CoV-2, UniProt P0DTC2 14-1273); assay: cell-based or functional assay
[3] = target: SARS-CoV-2 Omicron BA.2 variant spike protein on pseudovirus (SARS-CoV-2); assay: cell-based or functional assay
[4] = target: SARS-CoV-2 Alpha variant spike protein on pseudovirus (SARS-CoV-2, UniProt P0DTC2 14-1273); assay: cell-based or functional assay
[5] = target: SARS-CoV-2 Omicron BA.4/BA.5 variant spike protein on pseudovirus (SARS-CoV-2); assay: cell-based or functional assay
[6] = target: SARS-CoV-2 Gamma variant spike protein on pseudovirus (SARS-CoV-2, UniProt P0DTC2 14-1273); assay: cell-based or functional assay
[7] = target: T1, SARS-CoV-2 spike trimer (40589-V08H4) (SARS-CoV-2, UniProt P0DTC2 14-1213); assay: ELISA, A450, nanobody at 10ug/mL, Spike Trimer coated at 2 ug/mL
T1 construct: extracellular domain

| Binder | ELISA (A450) at 10ug/mL [7] | also measured |
| --- | --- | --- |
| B1 | 0.53 | IC50 for neutralizing pseudovirus [1]: 2250 nM; IC50 for neutralizing pseudovirus [2]: 4.57 µM; IC50 for neutralizing pseudovirus [3]: 2250 nM; IC50 for neutralizing pseudovirus [4]: 1820 nM; IC50 for neutralizing pseudovirus [5]: 3.73 µM; IC50 for neutralizing pseudovirus [6]: 1800 nM |
| B2 | 0.61 |  |
| B3 | 1.34 |  |
| B4 | 1.43 |  |
| B5 | 2.7 |  |
| B6 | 0.66 |  |
| B7 | 0.14 |  |
| B8 | 0.3 |  |
| B9 | 1.2 |  |
